Assay results as given in the Immune Epitope Database (IEDB).
Each block holds one sequence with its values, some of them ahead of it.

Experiments:
HLA-A*02:01 [1] = assay: IEDB peptide-MHC binding, cellular MHC/competitive/fluorescence; ≥ and ≤ were set here for values at or beyond the usual limits of such assays; settings: source organism: Mycobacterium tuberculosis
HLA-B*27:05 [2] = assay: IEDB peptide-MHC binding, purified MHC/competitive/fluorescence; filed as Kd, often an IC50 or EC50 that approximates it; ≥ and ≤ were set here for values at or beyond the usual limits of such assays; settings: source organism: Influenza A virus (A/Waikato/7/2000(H3N2))
HLA-C*06:02 = assay: IEDB peptide-MHC binding, purified MHC/direct/fluorescence; filed as Kd, often an IC50 or EC50 that approximates it; ≥ and ≤ were set here for values at or beyond the usual limits of such assays
HLA-B*83:01 = assay: IEDB peptide-MHC binding, purified MHC/competitive/fluorescence; filed as Kd, often an IC50 or EC50 that approximates it; ≥ and ≤ were set here for values at or beyond the usual limits of such assays
HLA-B*40:01 [3] = assay: as above; settings: source organism: Salmonella enterica subsp. enterica serovar Typhi
HLA-B*45:06 = assay: as above
HLA-C*04:01 [4] = assay: as above; settings: source organism: Salmonella enterica subsp. enterica serovar Typhi
HLA-B*15:42 = assay: as above
HLA-B*73:01 = assay: as above
HLA-B*07:02 = assay: IEDB peptide-MHC binding, purified MHC/direct/fluorescence; filed as Kd, often an IC50 or EC50 that approximates it; ≥ and ≤ were set here for values at or beyond the usual limits of such assays; settings: source organism: Stutzerimonas stutzeri
HLA-B*27:05 [5] = assay: as above
HLA-A*01:01 = assay: as above
HLA-A*26:01 = assay: as above
HLA-A*31:01 = assay: as above
HLA-B*08:01 = assay: as above
HLA-B*40:01 [6] = assay: as above
HLA-B*58:01 = assay: as above
HLA-B*15:01 [7] = assay: as above; settings: source organism: Stutzerimonas stutzeri
HLA-A*30:01 = assay: as above; settings: source organism: Stutzerimonas stutzeri
HLA-A*02:01 [8] = assay: as above
HLA-A*69:01 = assay: as above
HLA-B*35:01 = assay: IEDB peptide-MHC binding, cellular MHC/competitive/fluorescence; ≥ and ≤ were set here for values at or beyond the usual limits of such assays; settings: source organism: Mycobacterium tuberculosis H37Rv
HLA-A*32:07 = assay: IEDB peptide-MHC binding, purified MHC/competitive/fluorescence; filed as Kd, often an IC50 or EC50 that approximates it; ≥ and ≤ were set here for values at or beyond the usual limits of such assays; settings: source organism: Shewanella sp. W3-18-1
HLA-A*32:15 = assay: as above; settings: source organism: Shewanella sp. W3-18-1
HLA-C*05:01 = assay: IEDB peptide-MHC binding, purified MHC/direct/fluorescence; filed as Kd, often an IC50 or EC50 that approximates it; ≥ and ≤ were set here for values at or beyond the usual limits of such assays; settings: source organism: Shewanella sp. W3-18-1
HLA-C*04:01 [9] = assay: as above
HLA-A*24:03 = assay: as above; settings: source organism: Mammarenavirus lassaense
HLA-B*15:01 [10] = assay: IEDB peptide-MHC binding, purified MHC/competitive/fluorescence; filed as Kd, often an IC50 or EC50 that approximates it; ≥ and ≤ were set here for values at or beyond the usual limits of such assays; settings: source organism: Mycobacterium tuberculosis variant bovis BCG str. Pasteur 1173P2
HLA-B*39:01 = assay: IEDB peptide-MHC binding, purified MHC/direct/fluorescence; filed as Kd, often an IC50 or EC50 that approximates it; ≥ and ≤ were set here for values at or beyond the usual limits of such assays; settings: source organism: Mycobacterium tuberculosis str. Haarlem
HLA-B*46:01 = assay: as above; settings: source organism: Mycobacterium tuberculosis
HLA-B*51:01 = assay: as above; settings: source organism: Mycobacterium tuberculosis
HLA-B*48:01 = assay: as above; settings: source organism: Mycobacterium tuberculosis
HLA-B*38:01 = assay: as above; settings: source organism: Mycobacterium tuberculosis str. Haarlem
HLA-B*18:01 = assay: as above; settings: source organism: Mycobacterium tuberculosis
HLA-B*57:01 = assay: as above; settings: source organism: Mycobacterium tuberculosis
HLA-B*15:17 = assay: as above; settings: source organism: Mycobacterium tuberculosis
HLA-B*15:09 = assay: as above; settings: source organism: Mycobacterium tuberculosis str. Haarlem
HLA-A*11:01 = assay: as above; settings: source organism: Mycobacterium tuberculosis
HLA-B*08:02 = assay: as above; settings: source organism: Mycobacterium tuberculosis str. Haarlem
HLA-A*03:01 = assay: as above; settings: source organism: Mycobacterium tuberculosis
HLA-A*24:02 = assay: IEDB peptide-MHC binding, purified MHC/competitive/fluorescence; filed as Kd, often an IC50 or EC50 that approximates it; ≥ and ≤ were set here for values at or beyond the usual limits of such assays; settings: source organism: Campylobacter jejuni
HLA-C*07:02 = assay: IEDB peptide-MHC binding, purified MHC/direct/fluorescence; filed as Kd, often an IC50 or EC50 that approximates it; ≥ and ≤ were set here for values at or beyond the usual limits of such assays; settings: source organism: Campylobacter jejuni
[11] = source organism: Salmonella enterica subsp. enterica serovar Typhi
[12] = source organism: Stutzerimonas stutzeri
[13] = source organism: Shewanella sp. W3-18-1
[14] = source organism: Salmonella enterica subsp. enterica serovar Typhimurium
[15] = source organism: Mycobacterium tuberculosis variant bovis BCG str. Pasteur 1173P2
[16] = source organism: Mycobacterium tuberculosis
[17] = source organism: Mycobacterium tuberculosis str. Haarlem

Sequence: TIPEALAAV
- IC50 (HLA-A*02:01 [1]): 2.8 µM

Sequence: YRTLLMNEL
- Kd (HLA-B*27:05 [2]): 0.0539 µM
- Kd (HLA-C*06:02; source organism: Influenza A virus (A/Waikato/7/2000(H3N2))): 0.009 µM

Sequence: AEFVFSCGI
- Kd (HLA-B*83:01; [11]): ≥ 5 µM
- Kd (HLA-B*40:01 [3]): 0.0084 µM
- Kd (HLA-B*45:06; [11]): ≥ 5 µM
- Kd (HLA-C*04:01 [4]): ≥ 5 µM
- Kd (HLA-B*15:42; [11]): ≥ 5 µM

- Kd (HLA-B*73:01; [12]): ≥ 20 µM
- Kd (HLA-B*07:02): ≥ 20 µM
- Kd (HLA-B*27:05 [5]; [12]): 0.321 µM
- Kd (HLA-A*01:01; [12]): ≥ 20 µM
- Kd (HLA-A*26:01; [12]): ≥ 20 µM
- Kd (HLA-A*31:01; [12]): ≥ 20 µM
- Kd (HLA-B*08:01; [12]): ≥ 20 µM
- Kd (HLA-B*40:01 [6]; [12]): ≥ 20 µM
- Kd (HLA-B*58:01; [12]): ≥ 20 µM
- Kd (HLA-B*15:01 [7]): ≥ 20 µM
- Kd (HLA-A*30:01): ≥ 5 µM
- Kd (HLA-A*02:01 [8]; [12]): 5.95 µM
- Kd (HLA-A*69:01; [12]): ≥ 20 µM
Sequence: GRGQILLGK

Sequence: IPAKFLEGL
- IC50 (HLA-B*35:01): 7.1 µM

Sequence: LMMSSPPPI
- Kd (HLA-B*83:01; [13]): ≥ 5 µM
- Kd (HLA-A*32:07): 0.0508 µM
- Kd (HLA-B*45:06; [13]): ≥ 5 µM
- Kd (HLA-A*32:15): 0.137 µM
- Kd (HLA-B*15:42; [13]): ≥ 5 µM
- Kd (HLA-C*05:01): ≥ 20 µM
- Kd (HLA-A*02:01 [8]; [14]): 0.0123 µM
- Kd (HLA-A*69:01; [14]): 0.174 µM

Sequence: SRFLRRPAQ
- Kd (HLA-B*73:01; source organism: Burkholderia vietnamiensis G4): 0.67 µM

Sequence: NLLVTGFDT
- IC50 (HLA-A*02:01 [1]): 2.4 µM

- Kd (HLA-C*06:02; source organism: Aquifex aeolicus VF5): 0.173 µM
Sequence: CRRLNTKYL

Sequence: FYADPKRYF
- Kd (HLA-C*04:01 [9]; source organism: Mammarenavirus lassaense): ≥ 20 µM
- Kd (HLA-A*24:03): 0.008 µM

Sequence: RPRRASSPF
- Kd (HLA-B*83:01; [15]): 0.109 µM
- Kd (HLA-B*45:06; [15]): ≥ 5 µM
- Kd (HLA-B*15:01 [10]): 0.288 µM
- Kd (HLA-B*15:42; [15]): ≥ 5 µM
- Kd (HLA-B*39:01): ≥ 20 µM
- Kd (HLA-B*46:01): ≥ 20 µM
- Kd (HLA-B*51:01): ≥ 20 µM
- Kd (HLA-B*27:05 [5]; [16]): ≥ 20 µM
- Kd (HLA-B*48:01): ≥ 20 µM
- Kd (HLA-A*01:01; [16]): ≥ 20 µM
- Kd (HLA-B*38:01): ≥ 20 µM
- Kd (HLA-A*26:01; [17]): ≥ 20 µM
- Kd (HLA-B*18:01): 9.95 µM
- Kd (HLA-A*31:01; [16]): ≥ 20 µM
- Kd (HLA-B*08:01; [17]): 0.036 µM
- Kd (HLA-B*57:01): ≥ 20 µM
- Kd (HLA-B*40:01 [6]; [16]): ≥ 20 µM
- Kd (HLA-B*15:17): 0.273 µM
- Kd (HLA-B*58:01; [16]): ≥ 20 µM
- Kd (HLA-B*15:09): ≥ 20 µM
- Kd (HLA-A*11:01): ≥ 20 µM
- Kd (HLA-A*02:01 [8]; [16]): ≥ 20 µM
- Kd (HLA-B*08:02): 9.48 µM
- Kd (HLA-A*69:01; [16]): ≥ 20 µM
- Kd (HLA-A*03:01): ≥ 20 µM

Sequence: LYSRSFWFF
- Kd (HLA-A*24:02): ≤ 0.0001 µM
- Kd (HLA-C*04:01 [9]; source organism: Campylobacter jejuni): ≥ 20 µM
- Kd (HLA-C*07:02): 0.206 µM

Sequence: IPAEFLENF
- IC50 (HLA-B*35:01): 1 µM
